Measured values from patent US20180273587A1 (AILERON THERAPEUTICS, published 2018).
Positions of bridges follow the written chain, without caps; N, C: chain ends. Non-standard residues stand in square brackets, D forms with d. R8 = C=CCCCCCC[C@@](C)(N)C(=O)O; S5 = C=CCCC[C@](C)(N)C(=O)O

B1: Cross-linked peptide #5 (peptide)
peptide: IWIAQALXAIGDAFNAYYA
modifications: N-terminal Ac; Cit at residue 8 (column 153); $r8 at residue 9 (column 154) and $ at residue 16 (column 161), crosslinked; C-terminal NH2
B2: Cross-linked peptide #1 (peptide)
peptide: Ac-IWIAQALR[R8]IGDEFN[S5]YYA-NH2
modifications: staple 9-16
SMILES: CC[C@H](C)[C@H](NC(C)=O)C(=O)N[C@@H](Cc1c[nH]c2ccccc12)C(=O)N[C@H](C(=O)N[C@@H](C)C(=O)N[C@@H](CCC(N)=O)C(=O)N[C@@H](C)C(=O)N[C@@H](CC(C)C)C(=O)N[C@@H](CCCNC(=N)N)C(=O)N[C@]1(C)CCCCCCC=CCCC[C@@](C)(C(=O)N[C@@H](Cc2ccc(O)cc2)C(=O)N[C@@H](Cc2ccc(O)cc2)C(=O)N[C@@H](C)C(N)=O)NC(=O)[C@H](CC(N)=O)NC(=O)[C@H](Cc2ccccc2)NC(=O)[C@H](CCC(=O)O)NC(=O)[C@H](CC(=O)O)NC(=O)CNC(=O)[C@H]([C@@H](C)CC)NC1=O)[C@@H](C)CC
B3: Cross-linked peptide #7 (peptide)
peptide: Ac-IWIAQALR[R8]IGDAAN[S5]YYA-NH2
modifications: staple 9-16
SMILES: CC[C@H](C)[C@H](NC(C)=O)C(=O)N[C@@H](Cc1c[nH]c2ccccc12)C(=O)N[C@H](C(=O)N[C@@H](C)C(=O)N[C@@H](CCC(N)=O)C(=O)N[C@@H](C)C(=O)N[C@@H](CC(C)C)C(=O)N[C@@H](CCCNC(=N)N)C(=O)N[C@]1(C)CCCCCCC=CCCC[C@@](C)(C(=O)N[C@@H](Cc2ccc(O)cc2)C(=O)N[C@@H](Cc2ccc(O)cc2)C(=O)N[C@@H](C)C(N)=O)NC(=O)[C@H](CC(N)=O)NC(=O)[C@H](C)NC(=O)[C@H](C)NC(=O)[C@H](CC(=O)O)NC(=O)CNC(=O)[C@H]([C@@H](C)CC)NC1=O)[C@@H](C)CC
B4: Cross-linked peptide #16 (peptide)
peptide: IWIAQALRALGDAFNAYFA
modifications: not fully specified; N-terminal Ac; $r8 at residue 9 (column 154) and $ at residue 16 (column 161), crosslinked; hL at residue 10 (column 155); F4F at residue 18 (column 163); C-terminal NH2
B5: Cross-linked peptide #3 (peptide)
peptide: Ac-IWIAAALR[R8]IGDEFN[S5]YYA-NH2
modifications: staple 9-16
SMILES: CC[C@H](C)[C@H](NC(C)=O)C(=O)N[C@@H](Cc1c[nH]c2ccccc12)C(=O)N[C@H](C(=O)N[C@@H](C)C(=O)N[C@@H](C)C(=O)N[C@@H](C)C(=O)N[C@@H](CC(C)C)C(=O)N[C@@H](CCCNC(=N)N)C(=O)N[C@]1(C)CCCCCCC=CCCC[C@@](C)(C(=O)N[C@@H](Cc2ccc(O)cc2)C(=O)N[C@@H](Cc2ccc(O)cc2)C(=O)N[C@@H](C)C(N)=O)NC(=O)[C@H](CC(N)=O)NC(=O)[C@H](Cc2ccccc2)NC(=O)[C@H](CCC(=O)O)NC(=O)[C@H](CC(=O)O)NC(=O)CNC(=O)[C@H]([C@@H](C)CC)NC1=O)[C@@H](C)CC
B6: Cross-linked peptide #13 (peptide)
peptide: Ac-IWIAQAAR[R8]IGDAFN[S5]YYA-NH2
modifications: staple 9-16
SMILES: CC[C@H](C)[C@H](NC(C)=O)C(=O)N[C@@H](Cc1c[nH]c2ccccc12)C(=O)N[C@H](C(=O)N[C@@H](C)C(=O)N[C@@H](CCC(N)=O)C(=O)N[C@@H](C)C(=O)N[C@@H](C)C(=O)N[C@@H](CCCNC(=N)N)C(=O)N[C@]1(C)CCCCCCC=CCCC[C@@](C)(C(=O)N[C@@H](Cc2ccc(O)cc2)C(=O)N[C@@H](Cc2ccc(O)cc2)C(=O)N[C@@H](C)C(N)=O)NC(=O)[C@H](CC(N)=O)NC(=O)[C@H](Cc2ccccc2)NC(=O)[C@H](C)NC(=O)[C@H](CC(=O)O)NC(=O)CNC(=O)[C@H]([C@@H](C)CC)NC1=O)[C@@H](C)CC
B7: Cross-linked peptide #2 (peptide)
peptide: Ac-IWIAQALR[R8]IGDQFN[S5]YYA-NH2
modifications: staple 9-16
SMILES: CC[C@H](C)[C@H](NC(C)=O)C(=O)N[C@@H](Cc1c[nH]c2ccccc12)C(=O)N[C@H](C(=O)N[C@@H](C)C(=O)N[C@@H](CCC(N)=O)C(=O)N[C@@H](C)C(=O)N[C@@H](CC(C)C)C(=O)N[C@@H](CCCNC(=N)N)C(=O)N[C@]1(C)CCCCCCC=CCCC[C@@](C)(C(=O)N[C@@H](Cc2ccc(O)cc2)C(=O)N[C@@H](Cc2ccc(O)cc2)C(=O)N[C@@H](C)C(N)=O)NC(=O)[C@H](CC(N)=O)NC(=O)[C@H](Cc2ccccc2)NC(=O)[C@H](CCC(N)=O)NC(=O)[C@H](CC(=O)O)NC(=O)CNC(=O)[C@H]([C@@H](C)CC)NC1=O)[C@@H](C)CC
B8: Cross-linked peptide #12 (peptide)
peptide: Ac-IWIAQALR[R8]IGNAFN[S5]YYA-NH2
modifications: staple 9-16
SMILES: CC[C@H](C)[C@H](NC(C)=O)C(=O)N[C@@H](Cc1c[nH]c2ccccc12)C(=O)N[C@H](C(=O)N[C@@H](C)C(=O)N[C@@H](CCC(N)=O)C(=O)N[C@@H](C)C(=O)N[C@@H](CC(C)C)C(=O)N[C@@H](CCCNC(=N)N)C(=O)N[C@]1(C)CCCCCCC=CCCC[C@@](C)(C(=O)N[C@@H](Cc2ccc(O)cc2)C(=O)N[C@@H](Cc2ccc(O)cc2)C(=O)N[C@@H](C)C(N)=O)NC(=O)[C@H](CC(N)=O)NC(=O)[C@H](Cc2ccccc2)NC(=O)[C@H](C)NC(=O)[C@H](CC(N)=O)NC(=O)CNC(=O)[C@H]([C@@H](C)CC)NC1=O)[C@@H](C)CC
B9: Cross-linked peptide #9 (peptide)
peptide: Ac-IWIAQALR[R8]IADQFN[S5]YYA-NH2
modifications: staple 9-16
SMILES: CC[C@H](C)[C@H](NC(C)=O)C(=O)N[C@@H](Cc1c[nH]c2ccccc12)C(=O)N[C@H](C(=O)N[C@@H](C)C(=O)N[C@@H](CCC(N)=O)C(=O)N[C@@H](C)C(=O)N[C@@H](CC(C)C)C(=O)N[C@@H](CCCNC(=N)N)C(=O)N[C@]1(C)CCCCCCC=CCCC[C@@](C)(C(=O)N[C@@H](Cc2ccc(O)cc2)C(=O)N[C@@H](Cc2ccc(O)cc2)C(=O)N[C@@H](C)C(N)=O)NC(=O)[C@H](CC(N)=O)NC(=O)[C@H](Cc2ccccc2)NC(=O)[C@H](CCC(N)=O)NC(=O)[C@H](CC(=O)O)NC(=O)[C@H](C)NC(=O)[C@H]([C@@H](C)CC)NC1=O)[C@@H](C)CC
B10: Cross-linked peptide #11 (peptide)
peptide: Ac-IWIAQALA[R8]IGDAFN[S5]YYA-NH2
modifications: staple 9-16
SMILES: CC[C@H](C)[C@H](NC(C)=O)C(=O)N[C@@H](Cc1c[nH]c2ccccc12)C(=O)N[C@H](C(=O)N[C@@H](C)C(=O)N[C@@H](CCC(N)=O)C(=O)N[C@@H](C)C(=O)N[C@@H](CC(C)C)C(=O)N[C@@H](C)C(=O)N[C@]1(C)CCCCCCC=CCCC[C@@](C)(C(=O)N[C@@H](Cc2ccc(O)cc2)C(=O)N[C@@H](Cc2ccc(O)cc2)C(=O)N[C@@H](C)C(N)=O)NC(=O)[C@H](CC(N)=O)NC(=O)[C@H](Cc2ccccc2)NC(=O)[C@H](C)NC(=O)[C@H](CC(=O)O)NC(=O)CNC(=O)[C@H]([C@@H](C)CC)NC1=O)[C@@H](C)CC
B11: Cross-linked peptide #4 (peptide)
peptide: Ac-IWIAAALR[R8]IGDQFN[S5]YYA-NH2
modifications: staple 9-16
SMILES: CC[C@H](C)[C@H](NC(C)=O)C(=O)N[C@@H](Cc1c[nH]c2ccccc12)C(=O)N[C@H](C(=O)N[C@@H](C)C(=O)N[C@@H](C)C(=O)N[C@@H](C)C(=O)N[C@@H](CC(C)C)C(=O)N[C@@H](CCCNC(=N)N)C(=O)N[C@]1(C)CCCCCCC=CCCC[C@@](C)(C(=O)N[C@@H](Cc2ccc(O)cc2)C(=O)N[C@@H](Cc2ccc(O)cc2)C(=O)N[C@@H](C)C(N)=O)NC(=O)[C@H](CC(N)=O)NC(=O)[C@H](Cc2ccccc2)NC(=O)[C@H](CCC(N)=O)NC(=O)[C@H](CC(=O)O)NC(=O)CNC(=O)[C@H]([C@@H](C)CC)NC1=O)[C@@H](C)CC
B12: Cross-linked peptide #8 (peptide)
peptide: Ac-IWIAQALR[R8]IGDQAN[S5]YYA-NH2
modifications: staple 9-16
SMILES: CC[C@H](C)[C@H](NC(C)=O)C(=O)N[C@@H](Cc1c[nH]c2ccccc12)C(=O)N[C@H](C(=O)N[C@@H](C)C(=O)N[C@@H](CCC(N)=O)C(=O)N[C@@H](C)C(=O)N[C@@H](CC(C)C)C(=O)N[C@@H](CCCNC(=N)N)C(=O)N[C@]1(C)CCCCCCC=CCCC[C@@](C)(C(=O)N[C@@H](Cc2ccc(O)cc2)C(=O)N[C@@H](Cc2ccc(O)cc2)C(=O)N[C@@H](C)C(N)=O)NC(=O)[C@H](CC(N)=O)NC(=O)[C@H](C)NC(=O)[C@H](CCC(N)=O)NC(=O)[C@H](CC(=O)O)NC(=O)CNC(=O)[C@H]([C@@H](C)CC)NC1=O)[C@@H](C)CC
B13: Cross-linked peptide #10 (peptide)
peptide: Ac-IWIAQALR[R8]AGDQFN[S5]YYA-NH2
modifications: staple 9-16
SMILES: CC[C@H](C)[C@H](NC(C)=O)C(=O)N[C@@H](Cc1c[nH]c2ccccc12)C(=O)N[C@H](C(=O)N[C@@H](C)C(=O)N[C@@H](CCC(N)=O)C(=O)N[C@@H](C)C(=O)N[C@@H](CC(C)C)C(=O)N[C@@H](CCCNC(=N)N)C(=O)N[C@]1(C)CCCCCCC=CCCC[C@@](C)(C(=O)N[C@@H](Cc2ccc(O)cc2)C(=O)N[C@@H](Cc2ccc(O)cc2)C(=O)N[C@@H](C)C(N)=O)NC(=O)[C@H](CC(N)=O)NC(=O)[C@H](Cc2ccccc2)NC(=O)[C@H](CCC(N)=O)NC(=O)[C@H](CC(=O)O)NC(=O)CNC(=O)[C@H](C)NC1=O)[C@@H](C)CC

Columns and labels:
MCL-1 [1] = target: T1, MCL-1 (UniProt Q07820 172-327, limits assumed); test: Ki (Table 6); method not stated
T1 construct: Target of the Ki columns; also called Myeloid cell leukemia 1

BCL-XL [2] = target: T2, BCL-XL (UniProt Q07817 1-209); test: Ki (Table 6); method not stated
T2 construct: Target of the Ki columns

BCL-2 = target: T3, BCL-2 (UniProt P10415 1-217, limits assumed); test: Ki (Table 6); method not stated
T3 construct: Target of the Ki columns

MCL-1 [3] = target: T1, MCL-1; test: Ki (Table 8); method not stated
BCL-XL [4] = target: T2, BCL-XL; test: Ki (Table 8); method not stated

T1 sequence (Q07820 172-327 limits assumed): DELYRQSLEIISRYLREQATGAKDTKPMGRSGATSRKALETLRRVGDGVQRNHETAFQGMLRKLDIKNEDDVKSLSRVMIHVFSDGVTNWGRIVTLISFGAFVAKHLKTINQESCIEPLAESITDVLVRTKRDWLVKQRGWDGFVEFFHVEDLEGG
T3 sequence (P10415 1-217 limits assumed): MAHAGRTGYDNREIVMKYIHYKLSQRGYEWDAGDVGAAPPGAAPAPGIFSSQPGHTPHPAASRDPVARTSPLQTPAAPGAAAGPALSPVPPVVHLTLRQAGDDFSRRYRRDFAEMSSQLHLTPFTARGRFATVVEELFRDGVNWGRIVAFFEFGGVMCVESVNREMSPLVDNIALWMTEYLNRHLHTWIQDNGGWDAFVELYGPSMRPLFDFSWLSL
T2 sequence (Q07817 1-209): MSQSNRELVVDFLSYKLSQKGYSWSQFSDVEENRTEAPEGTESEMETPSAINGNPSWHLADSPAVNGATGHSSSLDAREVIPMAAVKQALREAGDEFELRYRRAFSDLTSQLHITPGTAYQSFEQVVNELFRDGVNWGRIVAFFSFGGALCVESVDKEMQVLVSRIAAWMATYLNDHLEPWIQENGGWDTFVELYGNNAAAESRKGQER

Binder	Ki (MCL-1 [1])	Ki (BCL-XL [2])	Ki (BCL-2)	Ki (MCL-1 [3])	Ki (BCL-XL [4])
B1	7.5 nM	110 nM	212 nM		
B2	1.8 nM	1.4 nM	3.2 nM		
B3	7.5 nM	402 nM	140 nM		
B4				27 nM	13 nM
B5	1 nM	1 nM	6 nM		
B6	501 nM	100000 nM	100000 nM		
B7	5.2 nM	12 nM	67 nM		
B8	195 nM	416 nM	405 nM		
B9	116 nM	7.7 nM	25.6 nM		
B10	73.8 nM	386 nM	1090 nM		
B11	6 nM	4 nM	22 nM		
B12	1.4 nM	24.9 nM	43.9 nM		
B13	122 nM	1.9 nM	4.8 nM		
